Experimental data as given in patent US20040039175, “Modulation of viral gene expression by engineered zinc finger proteins” (published 2004).

Columns and labels:
6F6 (7N-4/3 six-finger) [1] = molecular target: T1, 6F6 (7N-4/3 six-finger) (synthetic construct); assay: EMSA; affinity relative to 4/3 or 7N alone; details: tags: Promega TNT; label: radiolabel
7N [2] = molecular target: T2, 7N (synthetic construct); assay: EMSA; roughly similar apparent Kd to 4/3; details: tags: Promega TNT; label: radiolabel
7N [3] = molecular target: T2, 7N; assay: EMSA; intact t2 site; details: tags: Promega TNT; label: radiolabel
6F6 (7N-4/3 six-finger) [4] = molecular target: T1, 6F6 (7N-4/3 six-finger); assay: EMSA; almost no affinity; 3 mismatches; details: tags: Promega TNT; label: radiolabel
7N [5] = molecular target: T2, 7N; assay: EMSA; details: tags: Promega TNT; label: radiolabel
6F6 (7N-4/3 six-finger) [6] = molecular target: T1, 6F6 (7N-4/3 six-finger); assay: EMSA; almost no affinity; 8 mismatches; details: tags: Promega TNT; label: radiolabel
HIV-G = HIV-G (synthetic construct); assay: ELONA; apparent Kd, phage ELISA, Zn2+; details: protein: virion; label: biotin
HIV-C = HIV-C (synthetic construct); assay: ELONA; apparent Kd, phage ELISA, Zn2+; details: protein: virion; label: biotin
7N [7] = molecular target: T2, 7N; assay: ELONA; apparent Kd comparable with Zif268, weakest of the three; phage ELISA; details: protein: virion
HIV-D = HIV-D (synthetic construct); assay: ELONA; apparent Kd, phage ELISA, Zn2+; details: protein: virion; label: biotin
HIV-E = HIV-E (synthetic construct); assay: ELONA; apparent Kd, phage ELISA; F3 subsite printed differently in original table; details: protein: virion; label: biotin
HIV-F = HIV-F (synthetic construct); assay: ELONA; apparent Kd, phage ELISA, Zn2+; details: protein: virion; label: biotin
6F6 (7N-4/3 six-finger) [8] = molecular target: T1, 6F6 (7N-4/3 six-finger); assay: EMSA; almost no affinity; 11 mismatches; details: tags: Promega TNT; label: radiolabel

T1 sequence (chain, as listed by the source): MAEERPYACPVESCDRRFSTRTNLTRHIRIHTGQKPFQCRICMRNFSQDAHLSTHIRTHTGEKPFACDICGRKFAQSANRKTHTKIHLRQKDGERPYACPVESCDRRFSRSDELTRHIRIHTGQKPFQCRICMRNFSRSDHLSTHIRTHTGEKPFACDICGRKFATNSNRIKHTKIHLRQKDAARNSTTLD

B1: T24 probe (dsDNA)
DNA 1: CCGCCGGATCGGGCGGTAATGAGATGCCATG
DNA 2: CATGGCATCTCATTACCGCCCGATCCGGCGG
Which binding signal (6F6 (7N-4/3 six-finger) [1]) does the source give for B1 here?
The binding signal was ≥ 25 fold.

Does B1 bind (7N [2])?
Result: binds

B2: 68K probe (dsDNA)
DNA 1: CTTCCCGGTTCGGCGGTAATGAGATACGAG
DNA 2: CTCGTATCTCATTACCGCCGAACCGGGAAG
Does B2 bind (7N [3])?
Result: binds

Does B2 bind (6F6 (7N-4/3 six-finger) [4])?
Result: no binding

B3: IE110 probe (dsDNA)
DNA 1: TGGGTTCCGGGTATGGTAATGAGTTTCTTC
DNA 2: GAAGAAACTCATTACCATACCCGGAACCCA
Does B3 bind (7N [5])?
Result: binds

Does B3 bind (6F6 (7N-4/3 six-finger) [6])?
Result: no binding

B4: HIV-G site (dsDNA)
DNA 1: GCTAACTAGG
DNA 2: CCTAGTTAGC
Which Kd (HIV-G) does the source give for B4 here?
The Kd was 40.3 nM.

B5: HIV-C site (dsDNA)
DNA 1: GATGCTGCAT
DNA 2: ATGCAGCATC
Which Kd (HIV-C) does the source give for B5 here?
Its Kd is 13.7 nM.

B6: t2 (dsDNA)
DNA 1: TAATGAGAT
DNA 2: ATCTCATTA
With B6 as the binder, how does the Kd (7N [7]) read?
The Kd was ~1 nM.

B7: HIV-D site (dsDNA)
DNA 1: GCAGCTGCTT
DNA 2: AAGCAGCTGC
How did the Kd (HIV-D) turn out when B7 was run?
Its Kd is 4 nM.

B8: HIV-E site (dsDNA)
DNA 1: ATCTGAGCCT
DNA 2: AGGCTCAGAT
For B8, which Kd (HIV-E) is on record?
The Kd was 36.6 nM.

B9: HIV-F site (dsDNA)
DNA 1: GGAGCTCTCT
DNA 2: AGAGAGCTCC
B9 was tested. Which Kd (HIV-F) did it give?
The Kd was 13.3 nM.

B10: H2B probe (dsDNA)
DNA 1: ATAGAATCGCTTATGCAAATAAGGTGAAGA
DNA 2: TCTTCACCTTATTTGCATAAGCGATTCTAT
Does B10 bind (6F6 (7N-4/3 six-finger) [8])?
Result: no binding
